Source: patent publication US20260185163A1 (Dana-Farber, published 2026)
Substitutions are numbered along the chain they refer to. Ends that are not written are not given here. * marks the point of attachment. FITC = O=C1OC2(c3ccc(O)cc3Oc3cc(O)ccc32)c2ccc(NC(=S)*)cc21

Assays:
Assay in all cases: fluorescence polarization; 1 nM FITC-MLL1 4-43(C-A) probe titrated with StrepII-Avi-TEV-Menin; one site total fit; mean±S.D., N=3
[1] = molecular target: T1, StrepII-Avi-TEV-Menin (wild-type human Menin, recombinant, E. coli) (human, UniProt O00255 1-610)
T1 construct: also called WT Menin; WT-Menin
T1 sequence: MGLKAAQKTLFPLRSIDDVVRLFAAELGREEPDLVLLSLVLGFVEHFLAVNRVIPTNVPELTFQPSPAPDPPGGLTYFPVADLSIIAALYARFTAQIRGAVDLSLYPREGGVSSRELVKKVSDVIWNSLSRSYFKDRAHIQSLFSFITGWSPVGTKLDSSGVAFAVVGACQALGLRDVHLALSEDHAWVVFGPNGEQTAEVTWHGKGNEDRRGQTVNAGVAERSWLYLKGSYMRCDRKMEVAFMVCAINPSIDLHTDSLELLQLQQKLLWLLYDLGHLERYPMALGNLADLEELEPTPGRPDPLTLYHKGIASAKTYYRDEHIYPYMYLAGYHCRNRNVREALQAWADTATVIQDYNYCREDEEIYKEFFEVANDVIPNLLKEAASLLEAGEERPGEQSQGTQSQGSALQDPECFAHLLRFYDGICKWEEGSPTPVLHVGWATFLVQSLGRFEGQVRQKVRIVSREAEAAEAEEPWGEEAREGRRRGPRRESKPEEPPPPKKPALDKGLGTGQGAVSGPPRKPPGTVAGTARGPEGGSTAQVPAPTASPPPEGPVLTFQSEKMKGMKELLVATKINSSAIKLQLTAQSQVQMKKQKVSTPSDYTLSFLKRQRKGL
Experimental: (§1) To derive the FITC-MLL1₄₋₄₃(C-A) peptide Kd. FITC-conjugated MLL1₄₋₄₃(C-A) peptide probe at final concentration of 1 nM was mixed with increasing concentration of purified StrepII-Avi-TEV-Menin (5 μM final top concentration, 2-fold, 23-point dilution and a buffer control) in an assay buffer (50 mM Tris pH 7.5, 200 mM NaCl, 0.1% Pluronic F-68 solution (Sigma)) in 384-well microplates at 15 μL assay volume (Corning, 4514) and incubated for 30 min at room temperature (RT). For all assays change in fluorescence polarization was monitored using a PHERAstar FS microplate reader (BMG Labtech). […] In competitive titration experiments Menin proteins (1 nM WT, 1 nM M327I or 3 nM for T349M) and 1 nM FITC-conjugated MLL1₄₋₄₃(C-A) peptide probe were incubated in an assay buffer for 30 min. SNDX-5613 was then dispensed to 384-well microplate (Corning, 4514) containing 15 μL of the assay mix using D300e Digital Dispenser (HP) and normalized to 1% DMSO followed by 90 min incubation. The fluorescence polarization was monitored by PHERAstar FS microplate reader (BMG Labtech). The MLL1₄₋₄₃(WT) and MLL1₄₋₄₃(C-A) peptide titrations were performed by addition of 7.5 μL of 2-fold 23-point serial dilution into 7.5 μL of assay mix with the final concentrations of 1 nM FITC-conjugated MLL₄₋₄₃ peptide probe, 1 nM WT Menin or 1 nM Menin M327I or 3 nM Menin T349M in assay buffer. The fluorescence polarization was monitored by PHERAstar FS microplate reader (BMG Labtech). For analysis of the competitive titration experiments the last 10 cycles of the data were averaged to obtain technical replicates. Data from three independent replicates (n=3) was plotted and IC₅₀ values estimated using variable slope equation in GraphPad Prism 9. The calculation of Kᵢ values was performed using Kᵢ calculator available at websites.umich.edu/˜shaomengwanglab/software/calc_ki/index.html²³.

[2] = molecular target: T2, StrepII-Avi-TEV-Menin T349M (recombinant mutant human Menin) (human, UniProt O00255 1-610)
T2 construct: The mutant plasmid was made from the wild-type StrepII-Avi-TEV Menin construct; also called T349M-mutant Menin; T349M Menin
T2 sequence: T1 sequence with T349M
Experimental: as §1

[3] = molecular target: T3, StrepII-Avi-TEV-Menin M327I (recombinant mutant human Menin) (human, UniProt O00255 1-610)
T3 construct: The mutant plasmid was made from the wild-type StrepII-Avi-TEV Menin construct; also called M327I-mutant Menin; M327I Menin
T3 sequence: T1 sequence with M327I
Experimental: as §1

- Kd [1]: 0.76 nM
- Kd [2]: 2.99 nM
- Kd [3]: 0.91 nM
B1: N-terminal FITC-conjugated MLL1 4-43(C-A) peptide probe (peptide)
peptide: {FITC}-SARWRFPARPGTTGGGGGGGRRGLGGAPRQRVPALLLPPGY
modifications: not fully specified
notes: also called FITC-MLL14-43(C-A) peptide; MLL1 peptide
